Target: T1, PQLC2-FLAG wild type (human, UniProt Q6ZP29 1-291)
T1 sequence: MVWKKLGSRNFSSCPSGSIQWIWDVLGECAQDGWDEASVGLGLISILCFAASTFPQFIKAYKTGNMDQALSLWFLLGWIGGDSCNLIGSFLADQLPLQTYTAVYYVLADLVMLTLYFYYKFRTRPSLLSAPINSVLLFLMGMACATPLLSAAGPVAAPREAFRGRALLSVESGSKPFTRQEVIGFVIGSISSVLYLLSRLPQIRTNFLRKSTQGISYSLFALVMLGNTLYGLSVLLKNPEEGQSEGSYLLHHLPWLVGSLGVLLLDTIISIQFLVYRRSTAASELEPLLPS
Experiment: pull-down

B1: GST-WDR41-PIP (GST fused to the 10 amino acid PIP sequence) (peptide)
chain: TGFFNMWGFG
  binding result: binds

Source: paper doi:10.1101/2020.07.15.204800 (bioRxiv, 2020)
